Laboratory results: doi:10.1101/2025.08.07.668011
Values joined by “and” are separate entries in the source; they are usually repeats but may differ in a detail not shown here. Identical values can stand only once. Blank lines part the entries; values can stand above or below the substance they belong to.

How the values were obtained:
Test in all cases: high-speed atomic force microscopy
[1] = target: EML4-ALK v3 with the subdomain region (191-217 aa residues) deleted (ddv3) (human) (UniProt Q9UM73)
[2] = target: EML4-ALK variant-5 (v5a, E2:A20) (human) (UniProt Q9UM73)
[3] = target: EML4-ALK variant-3 (v3b, E6:A20) (human) (UniProt Q9UM73)

- ratio of dimers [1]: 28.1%
- ratio of trimers [1]: 7.3%
- stoichiometry N [1]: 2 and 3
Substance: EML4-ALK v3 with the subdomain region (191-217 aa residues) deleted (ddv3) (from UniProt Q9UM73 1058-1620) (natural protein)

- ratio of dimers [2]: 29.8%
- ratio of trimers [2]: 10.2%
- stoichiometry N [2]: 2 and 3
Substance: EML4-ALK variant-5 (v5a, E2:A20) (from UniProt Q9UM73 1058-1620) (natural protein)

- ratio of dimers [3]: 38.5%
- ratio of trimers [3]: 9.3%
- stoichiometry N [3]: 2 and 3
Substance: EML4-ALK variant-3 (v3b, E6:A20) (from UniProt Q9UM73 1058-1620) (natural protein)
